The results in this text go back to patent publication US12280159B2, “Therapeutic protein-based nanoparticles for treating cancer” (THE REGENTS OF THE UNIVERSITY OF MICHIGAN, priority 2020, dated 2025).

The subject of data set [1] is draining lymph nodes (F4/80+ macrophages, B220+ B cells, CD11c+ DCs). Also noted: species or system C57BL/6 mice. Conditions: mouse, in vivo, sc. As to the method:
OVA pNPs delivery to lymph nodes. Next, the pNPs targeting of the draining lymph nodes using AlexaFluor 647-labeled pNPs was evaluated. OVA pNPs of varying PEG/OVA ratio (10, 30, 50%) and size (200 nm, 500 nm) were injected subcutaneously at the tail base of C57BL/6 mice (10 μg OVA/100 μL dose). The inguinal draining lymph nodes were harvested 48 hours after injection. Single-cell suspensions from the draining lymph nodes were prepared and pNPs uptake among the different populations of antigen-presenting cells were analyzed (dendritic cells, macrophages and B cells) using flow cytometry by comparing the MFI values of the cells. […] In the past, many different particle sizes have been studied with respect to their lymphatic drainage. It has been shown that particles exceeding 500 nm can be trapped at the injection site. Nanoparticles smaller than 10 nm, or soluble antigen, diffuse into the lymphatic system easily, but their retention time in the lymph nodes is too short to provide sustained antigen delivery. […] For smaller pNPs sizes, improved uptake is observed for pNP with lower PEG/OVA ratio.

The next data set relates to B16F10-OVA melanoma. Put plainly: Therapeutic efficacy in murine B16F10-OVA melanoma model. The data set is classed as in vivo, C57BL/6 mice. Conditions: treated days 7 and 14 with CpG. Here is the method:
Therapeutic efficacy of pNPs in a model of melanoma. Encouraged by the fact that OVA pNPs with 10% PEG/OVA ratio result in increased OT-I CD8+ cell proliferation in vitro, improved uptake by APCs (both in vitro and in vivo), and enhanced humoral immune response in vivo, a murine model of B16F10-OVA melanoma was employed to evaluate the therapeutic efficacy of pNPs with a PEG/OVA ratio of 10% compared to solute OVA. Tumor-bearing mice were treated with 10% PEG/OVA pNPs or solute OVA (10 μg OVA/100 μL dose), co-administered with CpG (15 μg/dose). Following the regimen shown in FIG. 9A, C57BL/6 mice (10 mice/treatment group) were inoculated with 1×10^5 B16F10-OVA cells in the SC flank on day 0. Treatments with either 10% PEG/OVA pNPs or solute OVA were initiated on day 7 after tumor inoculation. A second treatment was given on day 14. Mice were euthanized after their tumors reached 15 mm in any dimension. […] More than 50% of mice treated with solute OVA were euthanized due to large tumor burden on day 20, and 100% of the mice were euthanized on day 21.

B1: ovalbumin (protein, UniProt P01012 2-386, looked up)
Ovalbumin: GSIGAASMEFCFDVFKELKVHHANENIFYCPIAIMSALAMVYLGAKDSTRTQINKVVRFDKLPGFGDSIEAQCGTSVNVHSSLRDILNQITKPNDVYSFSLASRLYAEERYPILPEYLQCVKELYRGGLEPINFQTAADQARELINSWVESQTNGIIRNVLQPSSVDSQTAMVLVNAIVFKGLWEKAFKDEDTQAMPFRVTEQESKPVQMMYQIGLFRVASMASEKMKILELPFASGTMSMLVLLPDEVSGLEQLESIINFEKLTEWTSSNVMEERKIKVYLPRMKMEEKYNLTSVLMAMGITDVFSSSANLSGISSAESLKISQAVHAAHAEINEAGREVVGSAEAGVDAASVSEEFRADHPFLFCIKHIATNAVLFFGRCVSP
notes: soluble ovalbumin antigen used as control
Regarding B1, the “MFI of lymph node cells / delivery to draining lymph nodes” value in data set [1] is reported as “not delivered to the lymph nodes efficiently”. Moreover, in the data set with B16F10-OVA melanoma (day 20), the “mice euthanized due to large tumor burden” value is recorded as “More than 50%”. Further, the mice euthanized with B16F10-OVA melanoma (day 21) came to 100%. In the data set with B16F10-OVA melanoma, the animal survival entry is “slightly better survival”.
